Drawing on the supplement of paper PMC10567573, this text covers protein stability index for 94 variants.

B1: PTPN9 (parent)
chain: TQHLPRECLPENLGGYVKIDLATW
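Further: lentivirally expressed fusions sorted by FACS into six bins by GFP to DsRed ratio, PSI derived from sequencing read proportions per bin multiplied by bin number.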

In the data set the parent is B1. In words: protein stability index of a GFP-peptide fusion (GPS, HEK-293T) (PSI 1-6); higher = more stable. The following applies: c terminus: a fixed tail appended.
On to TQHLPRECLPENLGYYVKIDLATW, for which the protein stability index was found to be 2.16. Regarding TQHLPRECLPENLGFYVKIDLATW, the protein stability index is 2.44. Next, TQHLPRECLPENLGLYVKIDLATW: 1.73. Turning to TQHLPRECLPENLGHYVKIDLATW, the protein stability index came out at 1.76. With TQHLPRECLPENLGDYVKIDLATW, the protein stability index came out at 2.2. With TQHLPRECLPENLGMYVKIDLATW the figure was 2.81; with TQHLPRECLPENLGAYVKIDLATW, 1.67. On to TQHLPRECLPENLGEYVKIDLATW, for which the protein stability index turned out to be 2.26.

TQHLPRECLPENLGWYVKIDLATW: the protein stability index was 2.88. Next, TQHLPRECLPENLGRYVKIDLATW: 2.11; TQHLPRECLPENLGNYVKIDLATW: 1.93. In the case of TQHLPRECLPENLGTYVKIDLATW, the protein stability index amounted to 1.35. With TQHLPRECLPENLGIYVKIDLATW the figure was 2.16; with TQHLPRECLPENLGKYVKIDLATW, 2.63; with TQHLPRECLPENLGQYVKIDLATW, 1.38. Turning to TQHLPRECLPENLGSYVKIDLATW, the protein stability index turned out to be 1.92. Next, TQHLPRECLPENLGVYVKIDLATW: 1.62; TQHLPRECLPENLGPYVKIDLATW: 2.63; TQHLPRECLPENLGGYVKIILATW: 2.01. Next, TQHLPRECLPENLGGYVKIFLATW: 2.58; TQHLPRECLPENLGGYVKIYLATW: 2.68.

As for TQHLPRECLPENLGGYVKIWLATW, the protein stability index came to 3.09. With TQHLPRECLPENLGGYVKILLATW the figure was 1.66; with TQHLPRECLPENLGGYVKITLATW, 2.51; with TQHLPRECLPENLGGYVKIGLATW, 1.78. Next, TQHLPRECLPENLGGYVKIELATW: 1.67; TQHLPRECLPENLGGYVKIVLATW: 2.73; TQHLPRECLPENLGGYVKIQLATW: 1.6. Next, TQHLPRECLPENLGGYVKIRLATW: 1.9; TQHLPRECLPENLGGYVKICLATW: 1.94; TQHLPRECLPENLGGYVKIKLATW: 1.94. As to TQHLPRECLPENLGGYVKIMLATW, the protein stability index was found to be 1.69. In the case of TQHLPRECLPENLGGYVKINLATW, the protein stability index was 1.78. With TQHLPRECLPENLGGYVKIHLATW the figure was 2.68; with TQHLPRECLPENLGGYVKIPLATW, 1.69.

For TQHLPRECLPENLGGYVKIALATW, the protein stability index worked out at 2.07. Next, TQHLPRECLPENLGGYVKISLATW: 1.92.

In the case of TQHLPRECLPENLGGYVKIDLITW, the protein stability index is 1.87. Next, TQHLPRECLPENLGGYVKIDLVTW: 2.08; TQHLPRECLPENLGGYVKIDLRTW: 1.23. With TQHLPRECLPENLGGYVKIDLDTW the figure was 3.18; with TQHLPRECLPENLGGYVKIDLHTW, 1.78. Next, TQHLPRECLPENLGGYVKIDLPTW: 2.49; TQHLPRECLPENLGGYVKIDLMTW: 1.65. Regarding TQHLPRECLPENLGGYVKIDLCTW, the protein stability index turned out to be 1.92. Next, TQHLPRECLPENLGGYVKIDLETW: 2.35; TQHLPRECLPENLGGYVKIDLWTW: 2.09.

As to TQHLPRECLPENLGGYVKIDLNTW, the protein stability index was found to be 2.35. Next, TQHLPRECLPENLGGYVKIDLYTW: 2.21; TQHLPRECLPENLGGYVKIDLFTW: 2.43. Next, TQHLPRECLPENLGGYVKIDLGTW: 1.64.

As to TQHLPRECLPENLGGYVKIDLSTW, the protein stability index was found to be 1.72. Next, TQHLPRECLPENLGGYVKIDLQTW: 2.01; TQHLPRECLPENLGGYVKIDLTTW: 1.9; TQHLPRECLPENLGGYVKIDLKTW: 2.08. Next, TQHLPRECLPENLGGYVKIDLLTW: 3.29. Next, TQHLPRECLPENLGGYVKIDWATW: 1.76. In the case of TQHLPRECLPENLGGYVKIDQATW, the protein stability index came to 2.96. With TQHLPRECLPENLGGYVKIDPATW the figure was 2.78; with TQHLPRECLPENLGGYVKIDKATW, 3.35; with TQHLPRECLPENLGGYVKIDVATW, 2.36. With TQHLPRECLPENLGGYVKIDIATW the figure was 1.65; with TQHLPRECLPENLGGYVKIDMATW, 1.88; with TQHLPRECLPENLGGYVKIDFATW, 1.76.

Consider TQHLPRECLPENLGGYVKIDYATW, for which the protein stability index is 1.97. With TQHLPRECLPENLGGYVKIDEATW the figure was 3.27; with TQHLPRECLPENLGGYVKIDDATW, 3.46; with TQHLPRECLPENLGGYVKIDRATW, 2.97. Take TQHLPRECLPENLGGYVKIDCATW: the protein stability index stood at 2.06. With TQHLPRECLPENLGGYVKIDHATW the figure was 2.17; with TQHLPRECLPENLGGYVKIDAATW, 2.09; with TQHLPRECLPENLGGYVKIDNATW, 2.63. Next, TQHLPRECLPENLGGYVKIDTATW: 2.27. Next, TQHLPRECLPENLGGYVKIDSATW: 2.73. On to TQHLPRECLPENLGGYVKIDGATW, for which the protein stability index amounted to 2.85. For the variant TQHLPRECLPENLGGSVKIDLATW, the protein stability index was 2.62. With TQHLPRECLPENLGGVVKIDLATW the figure was 2.35. With TQHLPRECLPENLGGIVKIDLATW the figure was 2.29. With TQHLPRECLPENLGGMVKIDLATW the figure was 2.35; with TQHLPRECLPENLGGTVKIDLATW, 3.02. With TQHLPRECLPENLGGRVKIDLATW, the protein stability index came out at 2.44. With TQHLPRECLPENLGGFVKIDLATW the figure was 1.66; with TQHLPRECLPENLGGKVKIDLATW, 3.1. With TQHLPRECLPENLGGNVKIDLATW the figure was 3.17. Next, TQHLPRECLPENLGGLVKIDLATW: 1.98; TQHLPRECLPENLGGHVKIDLATW: 2.41; TQHLPRECLPENLGGAVKIDLATW: 3.01. Take TQHLPRECLPENLGGPVKIDLATW: the protein stability index came to 3.04. Next, TQHLPRECLPENLGGEVKIDLATW: 3.37. TQHLPRECLPENLGGQVKIDLATW: the protein stability index worked out at 2.67.

As for TQHLPRECLPENLGGWVKIDLATW, the protein stability index turned out to be 1.5. Turning to TQHLPRECLPENLGGCVKIDLATW, the protein stability index was found to be 2.48.

Turning to TQHLPRECLPENLGGDVKIDLATW, the protein stability index turned out to be 3.39.

Regarding TQHLPRECLPENLGGGVKIDLATW, the protein stability index is 2.87.
